Results as given in paper PMC2775897.

Molecular target: axonemes (purified from sea urchin sperm flagella) (sea urchin)
Assay: single-molecule fluorescence microscopy

dwell time: 170 ms
Substance: DNA-kinesin monomer K336 333C_10 bp (from UniProt P33176 1-336)
